From US20110300138A1 (published 2011)
Where two headings read alike, the source gives them in different places.

Key:
[1] = biological target: full length wild type human TSHR (human) (UniProt P16473); test: TSHR260-AP bridge ELISA, wild type TSHR on wells; IgG at 10 µg/mL in HBD
[2] = biological target: TSH receptor (full length human TSHR) coated on tubes (human) (UniProt P16473); test: 125I-TSH binding inhibition read against NIBSC 90/672; mean over 10, 30 and 100 ng/mL, in serum
[3] = biological target: full length human TSHR with mutation Arg255 Asp (human) (UniProt P16473); test: TSHR260-AP bridge ELISA, Arg255 Asp TSHR on wells; IgG at 0.05 µg/mL in HBD
[4] = biological target: full length human TSHR with mutation Arg255 Asp (human) (UniProt P16473); test: TSHR260-AP bridge ELISA, Arg255 Asp TSHR on wells; IgG at 0.5 µg/mL in HBD
[5] = biological target: full length wild type human TSHR (human) (UniProt P16473); test: TSHR260-AP bridge ELISA, wild type TSHR on wells; IgG at 0.1 µg/mL in HBD
[6] = biological target: thyroid stimulating hormone receptor (TSHR), full length, coated on tubes (human) (UniProt P16473); test: inhibition of 125I-TSH binding, TSHR coated tubes; antibody 0.001 µg/mL in assay buffer; mean of duplicate
[7] = biological target: full length human TSHR with mutation Arg255 Asp (human) (UniProt P16473); test: TSHR260-AP bridge ELISA, Arg255 Asp TSHR on wells; IgG at 0.005 µg/mL in HBD
[8] = biological target: full length human TSHR with mutation Arg255 Asp (human) (UniProt P16473); test: TSHR260-AP bridge ELISA, Arg255 Asp TSHR on wells; IgG at 10 µg/mL in HBD
[9] = biological target: full length wild type human TSHR (human) (UniProt P16473); test: TSHR260-AP bridge ELISA, wild type TSHR on wells; IgG at 0.05 µg/mL in HBD
[10] = biological target: human TSH receptor (full length) coated on ELISA plate wells (human) (UniProt P16473); test: TSH-biotin binding inhibition ELISA, TSHR coated wells; 0.01 µg/mL in assay buffer + 100 µg/mL 5B3 IgG
wild type TSHR (human) = wild type TSHR (human) (UniProt P16473); test: cell-based or functional assay
[11] = biological target: TSHR with Tyr206 mutated to Ala (human) (UniProt P16473); test: cell-based or functional assay
[12] = biological target: wild type TSHR expressed in CHO cells (human) (UniProt P16473); test: cell-based or functional assay
[13] = biological target: TSHR with His105 mutated to Ala (expressed in CHO cells) (human) (UniProt P16473); test: cell-based or functional assay
[14] = biological target: human thyroid stimulating hormone receptor (TSHR), full length (human) (UniProt P16473); test: 125I-K1-70 Fab (competitor) binding to TSHR coated tubes; negative control MAb 0.1 µg/mL in HBD serum
[15] = biological target: wild type TSHR expressed in CHO cells (human) (UniProt P16473); test: cell-based or functional assay; remark: listed apart in the source
[16] = biological target: TSHR with Asp232 mutated to Ala expressed in CHO cells (human) (UniProt P16473); test: cell-based or functional assay
[17] = biological target: TSH receptor (TSHR), full length human, coated on tubes (human) (UniProt P16473); test: inhibition of 125I-TSH binding to TSHR coated tubes; 1 µg/mL, diluted in assay buffer
[18] = biological target: wild type TSHR expressed in CHO cells (human) (UniProt P16473); test: cell-based or functional assay; remark: listed apart in the source
[19] = biological target: TSHR with Arg255 mutated to Asp expressed in CHO cells (human) (UniProt P16473); test: cell-based or functional assay
[20] = biological target: human thyroid stimulating hormone receptor (TSHR), full length (human) (UniProt P16473); test: 125I-K1-70 Fab (competitor) binding to TSHR coated tubes; test sample 10 µg/mL in assay buffer
[21] = biological target: thyroid stimulating hormone receptor (TSHR), full length, coated on tubes (human) (UniProt P16473); test: inhibition of 125I-TSH binding, TSHR coated tubes; antibody 10 µg/mL in assay buffer
[22] = biological target: thyroid stimulating hormone receptor (TSHR), full length, coated on tubes (human) (UniProt P16473); test: inhibition of 125I-TSH binding, TSHR coated tubes; antibody 10 µg/mL in HBD serum pool
[23] = biological target: human thyroid stimulating hormone receptor (TSHR), full length (human) (UniProt P16473); test: 125I-K1-70 Fab (competitor) binding to TSHR coated tubes; test sample 0.01 µg/mL in assay buffer
[24] = biological target: thyroid stimulating hormone receptor (TSHR), full length, coated on tubes (human) (UniProt P16473); test: inhibition of 125I-TSH binding, TSHR coated tubes; antibody 100 µg/mL in assay buffer
[25] = biological target: thyroid stimulating hormone receptor (full length human TSHR) (human) (UniProt P16473); test: ELISA, inhibition of TSH-biotin binding to TSHR coated wells; 100 µg/mL, diluted in HBD serum pool
[26] = biological target: human thyroid stimulating hormone receptor (TSHR), full length (human) (UniProt P16473); test: 125I-K1-70 Fab (competitor) binding to TSHR coated tubes; test sample 0.1 µg/mL in assay buffer

Molecule: M22 IgG (antibody)
- Mean absorbance at 405 nm (absorbance at 405 nm) [1]: 1.36
- mean units/mg [2]: 131 units/mg
- Mean absorbance at 405 nm (absorbance at 405 nm) [3]: 0.017
- Mean absorbance at 405 nm (absorbance at 405 nm) [4]: 0.262
- Mean absorbance at 405 nm (absorbance at 405 nm) [5]: 0.599
- Inhibition of binding (%) [6]: 1.5%
- Mean absorbance at 405 nm (absorbance at 405 nm) [7]: -0.007
- Mean absorbance at 405 nm (absorbance at 405 nm) [8]: 0.551
- Mean absorbance at 405 nm (absorbance at 405 nm) [9]: 0.332
- % inhibition of TSH-biotin binding [10]: 12.9%

Molecule: 5B3 IgG (antibody)
- % inhibition of TSH stimulation, 5B3 100 µg/mL, wild type TSHR (wild type TSHR (human)): 0%
- Cyclic AMP produced (pmol/mL), 5B3 10 µg/mL + TSH 3 ng/mL, wild type TSHR (wild type TSHR (human)): 94.5 pmol/mL
- Cyclic AMP produced (pmol/mL), 5B3 100 µg/mL + TSH 3 ng/mL, wild type TSHR (wild type TSHR (human)): 101 pmol/mL
- % inhibition of TSH stimulation, 5B3 10 µg/mL, mutated TSHR [11]: 10%
- % inhibition of TSH stimulation, 5B3 100 µg/mL, mutated TSHR [11]: 9%
- Cyclic AMP produced (pmol/mL), 5B3 10 µg/mL + TSH 3 ng/mL, mutated TSHR [11]: 74.6 pmol/mL
- Cyclic AMP produced (pmol/mL), 5B3 100 µg/mL + TSH 3 ng/mL, mutated TSHR [11]: 75.2 pmol/mL
- Mutated/wild type (%) of cyclic AMP produced; 5B3 10 µg/mL + TSH 3 ng/mL [11]: 79%
- Mutated/wild type (%) of cyclic AMP produced; 5B3 100 µg/mL + TSH 3 ng/mL [11]: 74%
- % inhibition of TSH stimulation; 5B3 10 µg/mL [12]: 2%
- Cyclic AMP produced; 5B3 10 µg/mL + TSH 3 ng/mL [12]: 91.6 pmol/mL
- Cyclic AMP produced; 5B3 100 µg/mL + TSH 3 ng/mL [12]: 134 pmol/mL
- % inhibition of TSH stimulation; 5B3 10 µg/mL [13]: 0%
- % inhibition of TSH stimulation; 5B3 100 µg/mL [13]: 0%
- Cyclic AMP produced; 5B3 10 µg/mL + TSH 3 ng/mL [13]: 75.2 pmol/mL
- Cyclic AMP produced; 5B3 100 µg/mL + TSH 3 ng/mL [13]: 66.7 pmol/mL
- Mutated/wild type (%) of cyclic AMP produced; 5B3 10 µg/mL + TSH 3 ng/mL [13]: 82%
- Mutated/wild type (%) of cyclic AMP produced; 5B3 100 µg/mL + TSH 3 ng/mL [13]: 50%
- Inhibition of binding (%) [14]: -8.7%
- % inhibition of TSH stimulation; 5B3 10 µg/mL [15]: 0%
- % inhibition of TSH stimulation; 5B3 100 µg/mL [15]: 0%
- % inhibition of TSH stimulation; 5B3 10 µg/mL [16]: 10%
- % inhibition of TSH stimulation; 5B3 100 µg/mL [16]: 6%
- Mutated/wild type (%) of cyclic AMP produced; 5B3 10 µg/mL + TSH 3 ng/mL [16]: 59%
- Mutated/wild type (%) of cyclic AMP produced; 5B3 100 µg/mL + TSH 3 ng/mL [16]: 58%
- Inhibition of binding (%) [17]: -1.7%
- % inhibition of TSH stimulation; 5B3 10 µg/mL [18]: 0%
- % inhibition of TSH stimulation; 5B3 100 µg/mL [18]: 0%
- Cyclic AMP produced; 5B3 10 µg/mL + TSH 3 ng/mL [18]: 69.2 pmol/mL
- Cyclic AMP produced; 5B3 100 µg/mL + TSH 3 ng/mL [18]: 83.4 pmol/mL
- % inhibition of TSH stimulation; 5B3 10 µg/mL [19]: 0%
- % inhibition of TSH stimulation; 5B3 100 µg/mL [19]: 0%
- Cyclic AMP produced; 5B3 10 µg/mL + TSH 3 ng/mL [19]: 59.4 pmol/mL
- Cyclic AMP produced; 5B3 100 µg/mL + TSH 3 ng/mL [19]: 62.2 pmol/mL
- Mutated/wild type (%) of cyclic AMP produced; 5B3 10 µg/mL + TSH 3 ng/mL [19]: 86%
- Mutated/wild type (%) of cyclic AMP produced; 5B3 100 µg/mL + TSH 3 ng/mL [19]: 75%

Molecule: TSH (ligand)
- Cyclic AMP produced (pmol/mL), TSH 3 ng/mL, wild type TSHR (wild type TSHR (human)): 92.2 pmol/mL
- Cyclic AMP produced (pmol/mL), TSH (2) 3 ng/mL run at the end of assay, wild type TSHR (wild type TSHR (human)): 108 pmol/mL
- % inhibition of TSH stimulation, TSH (2) run at the end of assay, mutated TSHR [11]: 16%
- Cyclic AMP produced (pmol/mL), TSH 3 ng/mL, mutated TSHR [11]: 82.9 pmol/mL
- Cyclic AMP produced (pmol/mL), TSH (2) 3 ng/mL run at the end of assay, mutated TSHR [11]: 69.5 pmol/mL
- Mutated/wild type (%) of cyclic AMP produced; TSH 3 ng/mL [11]: 90%
- Mutated/wild type (%) of cyclic AMP produced; TSH (2) 3 ng/mL, run at the end of assay [11]: 64%
- % inhibition of TSH stimulation; TSH (2), run at the end of assay [12]: 0%
- Cyclic AMP produced; TSH 3 ng/mL alone [12]: 93.6 pmol/mL
- Cyclic AMP produced; TSH (2) 3 ng/mL, run at the end of assay [12]: 117 pmol/mL
- % inhibition of TSH stimulation; TSH (2), run at the end of assay [13]: 11%
- Cyclic AMP produced; TSH 3 ng/mL alone [13]: 65.9 pmol/mL
- Cyclic AMP produced; TSH (2) 3 ng/mL, run at the end of assay [13]: 58.5 pmol/mL
- Mutated/wild type (%) of cyclic AMP produced; TSH 3 ng/mL alone [13]: 70%
- Mutated/wild type (%) of cyclic AMP produced; TSH (2) 3 ng/mL, run at the end of assay [13]: 50%
- % inhibition of TSH stimulation; TSH (2), run at the end of assay [15]: 0%
- % inhibition of TSH stimulation; TSH (2), run at the end of assay [16]: 0%
- Mutated/wild type (%) of cyclic AMP produced; TSH 3 ng/mL [16]: 70%
- Mutated/wild type (%) of cyclic AMP produced; TSH (2) 3 ng/mL, run at the end of assay [16]: 76%
- % inhibition of TSH stimulation; TSH (2) control [18]: 2%
- Cyclic AMP produced; TSH 3 ng/mL alone [18]: 66.5 pmol/mL
- Cyclic AMP produced; TSH (2) [18]: 64.8 pmol/mL
- % inhibition of TSH stimulation; TSH (2) control [19]: 13%
- Cyclic AMP produced; TSH 3 ng/mL alone [19]: 57.8 pmol/mL
- Cyclic AMP produced; TSH (2) [19]: 50.2 pmol/mL
- Mutated/wild type (%) of cyclic AMP produced; TSH 3 ng/mL alone [19]: 87%
- Mutated/wild type (%) of cyclic AMP produced; TSH (2) [19]: 77%

Molecule: 9D33 IgG (antibody)
- Mean absorbance at 405 nm (absorbance at 405 nm) [1]: 0.481
- Inhibition of binding (%) [20]: 48%
- Mean absorbance at 405 nm (absorbance at 405 nm) [3]: 0.02
- Inhibition of binding (%) [21]: 58.7%
- Mean absorbance at 405 nm (absorbance at 405 nm) [4]: 0.242
- Inhibition of binding (%) [22]: 60.5%
- Inhibition of binding (%) [23]: 5%
- Mean absorbance at 405 nm (absorbance at 405 nm) [5]: 0.102
- Inhibition of binding (%) [24]: 75.6%
- Inhibition of binding (%) [25]: 84%
- Inhibition of binding (%) [26]: 29.7%
- Inhibition of binding (%) [17]: 50.9%
- Mean absorbance at 405 nm (absorbance at 405 nm) [7]: 0.001
- Mean absorbance at 405 nm (absorbance at 405 nm) [8]: 0.534
- Mean absorbance at 405 nm (absorbance at 405 nm) [9]: 0.056

B1: 5C9 IgG (antibody, from another filing, V domains shown)
VH: EVQLVESGGGLIQPGGSLRLSCAASGFTVSSNYMSWVRQAPGKGLEWVSVTYSGGSTSYADSVKGRFTISRDNSKNTLYLQMNSLRAEDTAVYYCARGGRYCSSISCYARSGCDYWGQGTLVTVSS
VL: AIQMTQSPSSLSASVGDRVTITCRASQSISNYLNWYQQKPGKAPKLLIYAASSLQSGVPSRFSGSGSGTDFTLTISSLQPEDFATYYCQQSYSSPSTTFGQGTKLEIK
- Inhibition of binding (%) [20]: 80.4%
- Inhibition of binding (%) [21]: 40.5%
- Inhibition of binding (%) [22]: 40.9%
- Inhibition of binding (%) [23]: 10.9%
- Inhibition of binding (%) [24]: 82.9%
- Inhibition of binding (%) [25]: 37.1%
- Inhibition of binding (%) [26]: 21.9%
- % inhibition of TSH-biotin binding [10]: 20.7%
